Target: M2 protein of human Influenza A virus A/WSN/33 (H1N1), wild type (Influenza A virus A/WSN/33 (H1N1))
Test: co-IP

B1: human DHHC20 fused at its C-terminus to a myc-tag (enzyme)
chain: TLWRCCQRVVGWVPVLFITFVVVWSYYAYVVELCVFTIFGNEENGKTVVYLVAFHLFFVMFVWSYWMTIFTSPASPSKEFYLSNSEKERYEKEFSQERQQEILRRAARALPIYTTSASKTIRYCEKCQLIKPDRAHHCSACDSCILKMDHHCPWVNNCVGFSNYKFFLLFLLYSLLYCLFVAATVLEYFIKFWTNELTDTRAKFHVLFLFFVSAMFFISVLSLFSYHCWLVGKNRTTIESFRAPTFSYGPDGNGFSLGCSKNWRQVFGDEKKYWLLPIFSSLGDGCSFPTRLVGM
percent of total DHHC20-myc co-precipitated: 1%

From PMC10622425
